In publication PMC9230926:

Substrate: O=P(O)(O)OP(=O)(O)O
Test: purified protein
Settings: Mg2+ (MgPPi complex is the true substrate; free PPi inhibits)

B1: UDP-glucose pyrophosphorylase (UGPase) (Hordeum vulgare) (protein)
chain: MAAAAVAADSKIDGLRDAVAKLGEISENEKAGFISLVSRYLSGEAEQIEWSKIQTPTDEVVVPYDTLAPPPEDLDAMKALLDKLVVLKLNGGLGTTMGCTGPKSVIEVRNGFTFLDLIVIQIESLNKKYGCSVPLLLMNSFNTHDDTQKIVEKYSNSNIEIHTFNQSQYPRIVTEDFLPLPSKGQTGKDGWYPPGHGDVFPSLNNSGKLDTLLSQGKEYVFVANSDNLGAIVDIKILNHLIHNQNEYCMEVTPKTLADVKGGTLISYEGRVQLLEIAQVPDEHVDEFKSIEKFKIFNTNNLWVNLKAIKRLVDAEALKMEIIPNPKEVDGVKVLQLETAAGAAIRFFEKAIGINVPRSRFLPVKATSDLLLVQSDLYTLVDGYVIRNPARVKPSNPSIELGPEFKKVANFLARFKSIPSIVELDSLKVSGDVSFGSGVVLKGNVTIAAKAGVKLEIPDGAVLENKDINGPEDI
- Km: 60 µM
